Laboratory results taken from the supplement of paper PMC5998384.

Legend:
HeLa Kyoto [1] = experiment: solubility in G1/S (NP-40 vs SDS abundance) (log2 ratio); higher = more soluble; conditions: cell cycle stage: G1/S
HeLa Kyoto [2] = experiment: melting temperature (median over replicates), in situ; higher = more thermally stable
HeLa Kyoto [3] = experiment: solubility change mitosis vs G1/S (difference of NP-40 vs SDS log2 ratios) (log2 ratio difference); higher = more soluble in mitosis
HeLa Kyoto [4] = experiment: thermal stability score vs G1/S (z-score of summed log2 fold changes over temperatures); higher = more thermally stable than in G1/S
[5] = cell cycle stage: early G1 (4.5 h after nocodazole release)
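Throughout, for melting temperature (median over replicates), in situ: HeLa Kyoto cells synchronized by double thymidine or nocodazole block, proteins quantified by TMT10plex mass spectrometry, three independent biological replicates.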
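Throughout, for solubility change mitosis vs G1/S (difference of NP-40 vs SDS log2 ratios): synchronized HeLa Kyoto cells (double thymidine block for G1/S, nocodazole release for mitosis), protein amounts in NP-40 versus SDS lysates quantified by mass spectrometry, three biological replicates.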
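Throughout, for solubility in G1/S (NP-40 vs SDS abundance): HeLa Kyoto cells arrested at G1/S by double thymidine block, proteins quantified by TMT10plex mass spectrometry in mild NP-40 versus SDS extracts, three biological replicates.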
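Throughout, for thermal stability score vs G1/S (z-score of summed log2 fold changes over temperatures): synchronized HeLa Kyoto cells, proteins quantified by TMT10plex mass spectrometry, three biological replicates, mitosis taken 0.5 h after nocodazole release, G1/S directly after double thymidine block.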

Row | Sequence | solubility in G1/S (log2) (HeLa Kyoto [1]) | melting temperature (HeLa Kyoto [2]; cell cycle stage: G1/S) [°C] | melting temperature (HeLa Kyoto [2]; cell cycle stage: mitosis) [°C] | solubility change mitosis (log2) (HeLa Kyoto [3]) | thermal stability score (HeLa Kyoto [4]; [5]) | thermal stability score (HeLa Kyoto [4]; cell cycle stage: mitosis)
1 | MAATASAGVPATVSEKQEFYQLLKNLINPSCMVRRQAEEIYENIPGLCKTTFLLDAVRNRRAGYEVRQMAAALLRRLLSSGFEEVYPNLPADVQRDVKIELILAVKLETHASMRKKLCDIFAVLARNLIDEDGTNHWPEGLKFLIDSIYSKNVVLWEVALHVFWHFPGIFGTQERHDLDIIKRLLDQCIQDQEHPAIRTLSARAAAAFVLANENNIALFKDFADLLPGILQAVNDSCYQDDDSVLESLVEIADTVPKYLGPYLEDTLQLSLKLCGDSRLSNLQRQLALEVIVTLSETATPMLKKHTNIIAQAVPHILAMMVDLQDDEDWVNADEMEEDDFDSNAVAAESALDRLACGLGGKVVLPMTKEHIMQMLQSPDWKYRHAGLMALSAIGEGCHQQMESILDETVNSVLLFLQDPHPRVRAAACTTLGQMATDFAPNFQKKFHETVIAALLRTMENQGNQRVQSHAASALIIFIEDCPKSLLVLYVDSMVKNLHSVLVIKLQELIRNGTKLALEQLVTTIASVADTIEEKFVPYYDIFMPSLKHIVELAVQKELKLLRGKTIECISHIGLAVGKEKFMQDASNVMQLLLKTQSDLNNMEDDDPQTSYMVSAWARMCKILGKDFQQYLPLVIEPLIKTASAKPDVALLDTQDVENMSDDDGWQFVNLGDQQSFGIKTSGLEAKATACQMLVYYAKELREGFVEYTEQVVKLMVPLLKFYFHDNVRVAAAESMPFLLECARIRGPEYLAQMWQFICDPLIKAIGTEPDTDVLSEIMNSFAKSIEVMGDGCLNDEHLEELGGILKAKLEGHFKNQELRQVKRQEENYDQQVEMSLQDEDECDVYILTKVSDILHSLFSTYKEKILPWFEQLLPLIVNLICSSRPWPDRQWGLCIFDDIIEHCSPTSFKYVEYFRWPMLLNMRDNNPEVRQAAAYGLGVMAQFGGDDYRSLCSEAVPLLVKVIKCANSKTKKNVIATENCISAIGKILKFKPNCVNVDEVLPHWLSWLPLHEDKEEAIQTLSFLCDLIESNHPVVIGPNNSNLPKIISIIAEGKINETINYEDPCAKRLANVVRQVQTSEDLWLECVSQLDDEQQEALQELLNFA [RANBP6] | -0.0197 | 49.9 | 51.5 | -0.132 | 0.799 | 0.825
2 | MAATLDLKSKEEKDAELDKRIEALRRKNEALIRRYQEIEEDRKKAELEGVAVTAPRKGRSVEKENVAVESEKNLGPSRRSPGTPRPPGASKGGRTPPQQGGRAGMGRASRSWEGSPGEQPRGGGAGGRGRRGRGRGSPHLSGAGDTSISDRKSKEWEERRRQNIEKMNEEMEKIAEYERNQREGVLEPNPVRNFLDDPRRRSGPLEESERDRREESRRHGRNWGGPDFERVRCGLEHERQGRRAGLGSAGDMTLSMTGRERSEYLRWKQEREKIDQERLQRHRKPTGQWRREWDAEKTDGMFKDGPVPAHEPSHRYDDQAWARPPKPPTFGEFLSQHKAEASSRRRRKSSRPQAKAAPRAYSDHDDRWETKEGAASPAPETPQPTSPETSPKETPMQPPEIPAPAHRPPEDEGEENEGEEDEEWEDISEDEEEEEIEVEEGDEEEPAQDHQAPEAAPTGIPCSEQAHGVPFSPEEPLLEPQAPGTPSSPFSPPSGHQPVSDWGEEVELNSPRTTHLAGALSPGEAWPFESV [CCDC9] | -0.239 | 56.3 | 56.3 | 0.231 | 3.28 | 2.57
3 | MAATLLAARGAGPAPAWGPEAFTPDWESREVSTGTTIMAVQFDGGVVLGADSRTTTGSYIANRVTDKLTPIHDRIFCCRSGSAADTQAVADAVTYQLGFHSIELNEPPLVHTAASLFKEMCYRYREDLMAGIIIAGWDPQEGGQVYSVPMGGMMVRQSFAIGGSGSSYIYGYVDATYREGMTKEECLQFTANALALAMERDGSSGGVIRLAAIAESGVERQVLLGDQIPKFAVATLPPA [PSMB6] | 0.119 | 59 | 59.6 | -0.103 | -1.97 | -2.64
4 | MAAVATCGSVAASTGSAVATASKSNVTSFQRRGPRASVTNDSGPRLVSIAGTRPSVRNGQLLVSTGLPALDQLLGGGLAVGTVLLIEEDKYNIYSPLLFKYFLAEGIVNGHTLLVASAKEDPANILQELPAPLLDDKCKKEFDEDVYNHKTPESNIKMKIAWRYQLLPKMEIGPVSSSRFGHYYDASKRMPQELIEASNWHGFFLPEKISSTLKVEPCSLTPGYTKLLQFIQNIIYEEGFDGSNPQKKQRNILRIGIQNLGSPLWGDDICCAENGGNSHSLTKFLYVLRGLLRTSLSACIITMPTHLIQNKAIIARVTTLSDVVVGLESFIGSERETNPLYKDYHGLIHIRQIPRLNNLICDESDVKDLAFKLKRKLFTIERLHLPPDLSDTVSRSSKMDLAESAKRLGPGCGMMAGGKKHLDF [ELP4] | 0.226 | 53.8 | 55.4 | -0.017 | 0.169 | -0.665
5 | MAAVKDSCGKGEMATGNGRRLHLGIPEAVFVEDVDSFMKQPGNETADTVLKKLDEQYQKYKFMELNLAQKKRRLKGQIPEIKQTLEILKYMQKKKESTNSMETRFLLADNLYCKASVPPTDKVCLWLGANVMLEYDIDEAQALLEKNLSTATKNLDSLEEDLDFLRDQFTTTEVNMARVYNWDVKRRNKDDSTKNKA [VBP1] | 0.453 | 53.1 | 53.4 | 0.513 | -3.96 | -5.3
6 | MAAVWQQVLAVDARYNAYRTPTFPQFRTQYIRRRSQLLRENAKAGHPPALRRQYLRLRGQLLGQRYGPLSEPGSARAYSNSIVRSSRTTLDRMEDFEDDPRALGARGHRRSVSRGSYQLQAQMNRAVYEDRPPGSVVPTSAAEASRAMAGDTSLSENYAFAGMYHVFDQHVDEAVPRVRFANDDRHRLACCSLDGSISLCQLVPAPPTVLRVLRGHTRGVSDFAWSLSNDILVSTSLDATMRIWASEDGRCIREIPDPDSAELLCCTFQPVNNNLTVVGNAKHNVHVMNISTGKKVKGGSSKLTGRVLALSFDAPGRLLWAGDDRGSVFSFLFDMATGKLTKAKRLVVHEGSPVTSISARSWVSREARDPSLLINACLNKLLLYRVVDNEGTLQLKRSFPIEQSSHPVRSIFCPLMSFRQGACVVTGSEDMCVHFFDVERAAKAAVNKLQGHSAPVLDVSFNCDESLLASSDASGMVIVWRREQK [WDR13] | 0.0237 | 53.2 | 53 | -0.174 | 0.118 | 0.204
7 | MAAWKSWTALRLCATVVVLDMVVCKGFVEDLDESFKENRNDDIWLVDFYAPWCGHCKKLEPIWNEVGLEMKSIGSPVKVGKMDATSYSSIASEFGVRGYPTIKLLKGDLAYNYRGPRTKDDIIEFAHRVSGALIRPLPSQQMFEHMQKRHRVFFVYVGGESPLKEKYIDAASELIVYTYFFSASEEVVPEYVTLKEMPAVLVFKDETYFVYDEYEDGDLSSWINRERFQNYLAMDGFLLYELGDTGKLVALAVIDEKNTSVEHTRLKSIIQEVARDYRDLFHRDFQFGHMDGNDYINTLLMDELTVPTVVVLNTSNQQYFLLDRQIKNVEDMVQFINNILDGTVEAQGGDSILQRLKRIVFDAKSTIVSIFKSSPLMGCFLFGLPLGVISIMCYGIYTADTDGGYIEERYEVSKSENENQEQIEESKEQQEPSSGGSVVPTVQEPKDVLEKKKD [TMX3] | 0.2 | 54.5 | 54.3 | -0.0543 | 0.827 | 3.44
8 | MAAYSYRPGPGAGPGPAAGAALPDQSFLWNVFQRVDKDRSGVISDTELQQALSNGTWTPFNPVTVRSIISMFDRENKAGVNFSEFTGVWKYITDWQNVFRTYDRDNSGMIDKNELKQALSGFGYRLSDQFHDILIRKFDRQGRGQIAFDDFIQGCIVLQRLTDIFRRYDTDQDGWIQVSYEQYLSMVFSIV [PDCD6] | 0.15 | 49.3 | 50.5 | 0.26 | 2.71 | 2.81
9 | MACGFRRAIACQLSRVLNLPPENLITSISAVPISQKEEVADFQLSVDSLLEKDNDHSRPDIQVQAKRLAEKLRCDTVVSEISTGQRTVNFKINRELLTKTVLQQVIEDGSKYGLKSELFSGLPQKKIVVEFSSPNVAKKFHVGHLRSTIIGNFIANLKEALGHQVIRINYLGDWGMQFGLLGTGFQLFGYEEKLQSNPLQHLFEVYVQVNKEAADDKSVAKAAQEFFQRLELGDVQALSLWQKFRDLSIEEYIRVYKRLGVYFDEYSGESFYREKSQEVLKLLESKGLLLKTIKGTAVVDLSGNGDPSSICTVMRSDGTSLYATRDLAAAIDRMDKYNFDTMIYVTDKGQKKHFQQVFQMLKIMGYDWAERCQHVPFGVVQGMKTRRGDVTFLEDVLNEIQLRMLQNMASIKTTKELKNPQETAERVGLAALIIQDFKGLLLSDYKFSWDRVFQSRGDTGVFLQYTHARLHSLEETFGCGYLNDFNTACLQEPQSVSILQHLLRFDEVLYKSSQDFQPRHIVSYLLTLSHLAAVAHKTLQIKDSPPEVAGARLHLFKAVRSVLANGMKLLGITPVCRM [RARS2] | -0.144 | 51.7 | 50.8 | -0.141 | -0.261 | -0.261
10 | MACSIVQFCYFQDLQAARDFLFPHLREEILSGALRRDPSKSTDWEDDGWGAWEENEPQEPEEEGNTCKTQKTSWLQDCVLSLSPTNDLMVIAREQKAVFLVPKWKYSDKGKEEMQFAVGWSGSLNVEEGECVTSALCIPLASQKRSSTGRPDWTCIVVGFTSGYVRFYTENGVLLLAQLLNEDPVLQLKCRTYEIPRHPGVTEQNEELSILYPAAIVTIDGFSLFQSLRACRNQVAKAAASGNENIQPPPLAYKKWGLQDIDTIIDHASVGIMTLSPFDQMKTASNIGGFNAAIKNSPPAMSQYITVGSNPFTGFFYALEGSTQPLLSHVALAVASKLTSALFNAASGWLGWKSKHEEEAVQKQKPKVEPATPLAVRFGLPDSRRHGESICLSPCNTLAAVTDDFGRVILLDVARGIAIRMWKGYRDAQIGWIQTVEDLHERVPEKADFSPFGNSQGPSRVAQFLVIYAPRRGILEVWSTQQGPRVGAFNVGKHCRLLYPGYKIMGLNNVTSQSWQPQTYQICLVDPVSGSVKTVNVPFHLALSDKKSERAKDMHLVKKLAALLKTKSPNLDLVETEIKELILDIKYPATKKQALESILASERLPFSCLRNITQTLMDTLKSQELESVDEGLLQFCANKLKLLQLYESVSQLNSLDFHLDTPFSDNDLALLLRLDEKELLKLQALLEKYKQENTRTNVRFSDDKDGVLPVKTFLEYLEYEKDVLNIKKISEEEYVALGSFFFWKCLHGESSTEDMCHTLESAGLSPQLLLSLLLSVWLSKEKDILDKPQSICCLHTMLSLLSKMKVAIDETWDSQSVSPWWQQMRTACIQSENNGAALLSAHVGHSVAAQISNNMTEKKFSQTVLGADSEALTDSWEALSLDTEYWKLLLKQLEDCLILQTLLHSKGNTQTSKVSSLQAEPLPRLSVKKLLEGGKGGIADSVAKWIFKQDFSPEVLKLANEERDAENPDEPKEGVNRSFLEVSEMEMDLGAIPDLLHLAYEQFPCSLELDVLHAHCCWEYVVQWNKDPEEARFFVRSIEHLKQIFNAHVQNGIALMMWNTFLVKRFSAATYLMDKVGKSPKDRLCRRDVGMSDTAMTSFLGSCLDLLQILMEADVSRDEIQVPVLDTEDAWLSVEGPISIVELALEQKHIHYPLVEHHSILCSILYAVMRFSLKTVKPLSLFDSKGKNAFFKDLTSIQLLPSGEMDPNFISVRQQFLLKVVSAAVQAQHSATKVKDPTEEATPTPFGKDQDWPALAVDLAHHLQVSEDVVRRHYVGELYNYGVDHLGEEAILQVHDKEVLASQLLVLTGQRLAHALLHTQTKEGMELLARLPPTLCTWLKAMDPQDLQNTEVPIATTAKLVNKVIELLPEKHGQYGLALHLIEAVEAISLPSL [RAB3GAP2] | 0.0196 | 48.7 | 49.2 | -0.143 | 1.1 | 1.85
